Reference: patent US20080234175, “Process for Designing Inhibitors of Influenza Virus Structural Protein 1” (published 2008)

B1: 16-bp dsRNA (RR) (dsRNA)
RNA 1: CCAUCCUCUACAGGCG
RNA 2: CGCCUGUAGAGGAUGG

Columns and labels:
[1] = molecular target: NS1A(1-73) RNA-binding domain of influenza A virus NS1 protein (Influenza A virus) (UniProt P03495); assay: EMSA; conditions: CITED Wang 1999; 10-fold higher affinity than for 55-bp dsRNA; cited from earlier work
[2] = molecular target: NS1A(1-73) RNA-binding domain of influenza A virus NS1 protein (Influenza A virus, UniProt P03495 P03495:1-73); assay: sedimentation equilibrium, 25 C, 1:1 dimer:duplex; summarized as ~1 uM; conditions: tags: pET11a expression in E. coli BL21(DE3), no tag stated; chain copies: 2 (stated, homodimer); label: 5'-32P for gel shift; unlabeled otherwise
Sequence of NS1A(1-73) RNA-binding domain of influenza A virus NS1 protein (P03495 1-73, one chain of several): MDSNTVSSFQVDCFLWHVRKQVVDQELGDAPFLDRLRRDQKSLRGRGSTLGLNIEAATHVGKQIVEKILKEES

Sequence of NS1A(1-73) RNA-binding domain of influenza A virus NS1 protein (Influenza A virus) (P03495 1-73): as the sequence (P03495 1-73, one chain of several) above

Row | Molecule | binding signal [1] [fold] | Kd [2] [nM]
1 | 140-bp dsRNA | 10 | –
2 | B1 | – | 748
